Reference: article PMC5913291

Molecular target: T1, Interferon regulatory factor 3 (IRF-3) (human (endogenous in HEK293T)), Q14653
T1 chain: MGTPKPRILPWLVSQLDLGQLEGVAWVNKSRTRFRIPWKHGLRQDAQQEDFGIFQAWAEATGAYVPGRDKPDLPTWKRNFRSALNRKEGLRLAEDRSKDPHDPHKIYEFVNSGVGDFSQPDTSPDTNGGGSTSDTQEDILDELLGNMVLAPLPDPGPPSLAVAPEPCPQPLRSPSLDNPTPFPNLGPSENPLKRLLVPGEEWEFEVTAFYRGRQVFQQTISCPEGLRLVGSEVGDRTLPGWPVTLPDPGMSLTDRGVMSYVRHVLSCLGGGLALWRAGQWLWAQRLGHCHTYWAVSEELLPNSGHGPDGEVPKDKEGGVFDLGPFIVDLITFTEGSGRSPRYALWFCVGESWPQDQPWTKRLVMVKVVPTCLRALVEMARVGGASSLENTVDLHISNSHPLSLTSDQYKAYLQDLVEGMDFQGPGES
Experiment: native gel or EMSA; lysates of HEK293T cells transfected with HCV 3'-UTR RNA, left untreated or treated with 2.5 mM cFP, 12 h post-transfection; native PAGE and immunoblot for IRF-3 dimers
Conditions: remark: other sources report otherwise

B1: Interferon regulatory factor 3 (IRF-3), Q14653 1-427 (natural protein)
chain: MGTPKPRILPWLVSQLDLGQLEGVAWVNKSRTRFRIPWKHGLRQDAQQEDFGIFQAWAEATGAYVPGRDKPDLPTWKRNFRSALNRKEGLRLAEDRSKDPHDPHKIYEFVNSGVGDFSQPDTSPDTNGGGSTSDTQEDILDELLGNMVLAPLPDPGPPSLAVAPEPCPQPLRSPSLDNPTPFPNLGPSENPLKRLLVPGEEWEFEVTAFYRGRQVFQQTISCPEGLRLVGSEVGDRTLPGWPVTLPDPGMSLTDRGVMSYVRHVLSCLGGGLALWRAGQWLWAQRLGHCHTYWAVSEELLPNSGHGPDGEVPKDKEGGVFDLGPFIVDLITFTEGSGRSPRYALWFCVGESWPQDQPWTKRLVMVKVVPTCLRALVEMARVGGASSLENTVDLHISNSHPLSLTSDQYKAYLQDLVEGMDFQGPGES
- stoichiometry N: 2
